Results reported in patent publication US20150344548A1.

Experiments:
[1] = target: Staphylococcus aureus protein A (SpA) in the cell wall of SA bacteria (strain ATCC #25923 and clinical isolate 00X) (Staphylococcus aureus); assay: flow cytometry: SA strain ATCC #25923 incubated with biotinylated MABp1 (negative control), then streptavidin-APC; mean fluorescence FL4-H from the table beside the histogram (bottom panel)
[2] = target: Staphylococcus aureus protein A (SpA) in the cell wall of SA bacteria (strain ATCC #25923 and clinical isolate 00X) (Staphylococcus aureus); assay: flow cytometry: SA clinical isolate 00X incubated with biotinylated MABp1 (negative control), then streptavidin-APC; mean fluorescence FL4-H from the table beside the histogram (top panel)
[3] = target: Staphylococcus aureus protein A (SpA) in the cell wall of SA bacteria (strain ATCC #25923 and clinical isolate 00X) (Staphylococcus aureus); assay: flow cytometry: SA clinical isolate 00X pre-incubated with human sera for 15 minutes, then biotinylated MABp1-IgG3 (isotype-matched negative control), then streptavidin-APC (top panel)
[4] = target: Staphylococcus aureus protein A (SpA) in the cell wall of SA bacteria (strain ATCC #25923 and clinical isolate 00X) (Staphylococcus aureus); assay: flow cytometry: SA strain ATCC #25923 by the legend (printed on the sheet as 25935) pre-incubated with human sera for 15 minutes, then biotinylated MABp1-IgG3 (isotype-matched negative control), then streptavidin-APC (bottom panel)

Row | Substance | Mean:FL4-H [1] | Mean:FL4-H [2] | Mean:FL4-H [3] | Mean:FL4-H [4]
1 | MABp1-IgG1 (antibody) | 46.7 | 29.8 | – | –
2 | MABp1-IgG3 (antibody) | – | – | 19.1 | 10.3
